The numbers were not newly measured in PMC4028615, which cites them from elsewhere.

This data set addresses integrin (LFA-1) (Homo sapiens) (UniProt P20701).

Chain of ICAM-1 (P05362 28-480): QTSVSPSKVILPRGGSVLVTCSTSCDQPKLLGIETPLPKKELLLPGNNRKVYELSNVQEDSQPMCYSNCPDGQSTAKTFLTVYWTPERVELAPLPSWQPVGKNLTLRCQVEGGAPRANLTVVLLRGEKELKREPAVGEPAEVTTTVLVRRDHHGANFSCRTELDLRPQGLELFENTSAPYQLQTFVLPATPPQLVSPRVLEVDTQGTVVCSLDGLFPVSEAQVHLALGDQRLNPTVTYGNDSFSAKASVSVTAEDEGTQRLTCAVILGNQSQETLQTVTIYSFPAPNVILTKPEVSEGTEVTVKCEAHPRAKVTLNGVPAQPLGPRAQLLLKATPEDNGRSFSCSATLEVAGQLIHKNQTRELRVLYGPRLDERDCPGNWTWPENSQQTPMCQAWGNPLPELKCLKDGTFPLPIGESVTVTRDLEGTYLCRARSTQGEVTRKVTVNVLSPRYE
Chain of integrin (LFA-1) (Homo sapiens) (P20701 26-1090, chain 1 of 2): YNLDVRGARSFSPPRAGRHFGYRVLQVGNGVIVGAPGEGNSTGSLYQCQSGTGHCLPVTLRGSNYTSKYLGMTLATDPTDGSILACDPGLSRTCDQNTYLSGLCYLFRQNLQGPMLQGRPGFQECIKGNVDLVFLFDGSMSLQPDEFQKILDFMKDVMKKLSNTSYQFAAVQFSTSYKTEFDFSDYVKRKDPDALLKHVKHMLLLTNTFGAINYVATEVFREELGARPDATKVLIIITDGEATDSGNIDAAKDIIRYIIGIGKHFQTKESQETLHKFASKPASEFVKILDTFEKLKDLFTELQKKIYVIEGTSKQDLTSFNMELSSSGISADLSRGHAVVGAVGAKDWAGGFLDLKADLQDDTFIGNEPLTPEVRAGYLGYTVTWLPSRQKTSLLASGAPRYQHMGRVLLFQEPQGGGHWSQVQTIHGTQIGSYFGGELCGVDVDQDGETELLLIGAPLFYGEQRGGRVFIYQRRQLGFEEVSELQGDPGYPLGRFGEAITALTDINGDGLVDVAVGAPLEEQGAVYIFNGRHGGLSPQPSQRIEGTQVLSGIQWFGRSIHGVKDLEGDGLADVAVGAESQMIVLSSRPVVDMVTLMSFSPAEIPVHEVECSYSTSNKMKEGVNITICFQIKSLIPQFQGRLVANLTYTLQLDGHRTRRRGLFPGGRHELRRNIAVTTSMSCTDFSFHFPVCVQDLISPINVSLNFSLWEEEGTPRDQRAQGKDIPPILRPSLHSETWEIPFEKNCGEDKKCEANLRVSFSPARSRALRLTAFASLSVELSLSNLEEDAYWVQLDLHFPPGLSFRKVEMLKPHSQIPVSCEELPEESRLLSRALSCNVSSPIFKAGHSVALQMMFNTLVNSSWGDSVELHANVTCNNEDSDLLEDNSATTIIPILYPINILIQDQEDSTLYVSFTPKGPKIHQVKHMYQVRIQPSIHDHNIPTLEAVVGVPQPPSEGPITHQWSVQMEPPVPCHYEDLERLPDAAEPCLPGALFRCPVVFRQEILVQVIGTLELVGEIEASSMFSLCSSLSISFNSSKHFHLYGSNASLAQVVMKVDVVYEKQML
Chain of integrin (LFA-1) (Homo sapiens) (P05107 23-700, chain 2 of 2, further chain): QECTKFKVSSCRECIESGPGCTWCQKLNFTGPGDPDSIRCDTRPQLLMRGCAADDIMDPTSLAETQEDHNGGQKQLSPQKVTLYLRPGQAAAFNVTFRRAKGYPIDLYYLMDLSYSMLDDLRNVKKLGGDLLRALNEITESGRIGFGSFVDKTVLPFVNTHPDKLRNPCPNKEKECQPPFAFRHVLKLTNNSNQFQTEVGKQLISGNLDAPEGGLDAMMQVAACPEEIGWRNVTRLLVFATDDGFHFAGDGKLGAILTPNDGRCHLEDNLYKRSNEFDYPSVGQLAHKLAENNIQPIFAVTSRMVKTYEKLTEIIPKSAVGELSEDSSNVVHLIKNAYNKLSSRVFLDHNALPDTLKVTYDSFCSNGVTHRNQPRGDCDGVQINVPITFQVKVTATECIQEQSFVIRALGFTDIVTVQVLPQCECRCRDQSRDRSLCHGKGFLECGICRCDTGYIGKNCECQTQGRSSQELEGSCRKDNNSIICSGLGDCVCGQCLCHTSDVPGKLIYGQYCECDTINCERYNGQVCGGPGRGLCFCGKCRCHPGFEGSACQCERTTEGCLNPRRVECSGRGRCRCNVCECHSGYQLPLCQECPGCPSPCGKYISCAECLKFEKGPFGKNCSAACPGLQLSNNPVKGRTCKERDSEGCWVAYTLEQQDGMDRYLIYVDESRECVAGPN

For the substance ICAM-1 (from UniProt P05362), the Kd (usually the constant that tells how readily two partners part at equilibrium) was 100 nM.
